According to PMC10961335:

Target: MGF505-4R fused to NanoLuciferase fragment N1 (pDEST-N2H-N1) (African swine fever virus, Georgia 2007/1 strain)
Test: split reporter (BiFC, NanoBiT)

Question: How did the luminescence score (fold increase over N1-MGF505-4R with empty N2 vector) turn out when “swine TRAF3 fused to NanoLuciferase fragment N2 (pDEST-N2H-N2) (natural protein)” was run?
Answer: Its luminescence score (fold increase over N1-MGF505-4R with empty N2 vector) is 8.5 fold.
